# In publication PMC5244355:
# Experiments:
# [1] = biological target: α-syn NAC (α-syn 57–102) (human) (UniProt P37840)
# [2] = biological target: α-syn ΔC (α-synuclein A53T deletion mutant lacking most of the C-terminal part) (human)
# [3] = biological target: α-synuclein A53T amyloid fibres (human) (UniProt P37840); test: co-sedimentation; purified fibres (3.5 μM at monomer concentration) with 0.7 μM CCT or GroEL in 25 mM Tris pH 7.4, 5 mM MgCl2, 150 mM NaCl, 10% glycerol, 30 min, room temperature; 141,000 xg, 60 min, 4 °C; pellet and supernatant on SDS-PAGE, Coomassie, ImageJ
# Chain of chaperonin CCT (chaperonin containing TCP-1), bovine testis (Q3MHL7 whole entry, looked up): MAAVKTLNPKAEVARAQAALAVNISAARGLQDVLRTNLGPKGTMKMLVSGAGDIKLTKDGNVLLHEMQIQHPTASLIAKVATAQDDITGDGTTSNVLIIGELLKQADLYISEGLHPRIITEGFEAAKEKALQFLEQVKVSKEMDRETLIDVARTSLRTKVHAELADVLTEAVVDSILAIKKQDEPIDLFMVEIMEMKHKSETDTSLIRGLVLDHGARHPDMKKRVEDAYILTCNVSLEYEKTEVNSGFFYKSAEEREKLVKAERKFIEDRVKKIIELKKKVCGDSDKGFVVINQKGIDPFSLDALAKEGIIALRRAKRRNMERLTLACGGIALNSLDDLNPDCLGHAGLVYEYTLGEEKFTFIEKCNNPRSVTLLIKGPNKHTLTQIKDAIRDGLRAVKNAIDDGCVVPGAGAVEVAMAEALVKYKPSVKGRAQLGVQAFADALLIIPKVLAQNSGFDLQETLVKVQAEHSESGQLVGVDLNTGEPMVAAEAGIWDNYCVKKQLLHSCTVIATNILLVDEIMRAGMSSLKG
# Chain of chaperonin CCT (chaperonin containing TCP-1), bovine testis (Q3T0K2 whole entry, looked up): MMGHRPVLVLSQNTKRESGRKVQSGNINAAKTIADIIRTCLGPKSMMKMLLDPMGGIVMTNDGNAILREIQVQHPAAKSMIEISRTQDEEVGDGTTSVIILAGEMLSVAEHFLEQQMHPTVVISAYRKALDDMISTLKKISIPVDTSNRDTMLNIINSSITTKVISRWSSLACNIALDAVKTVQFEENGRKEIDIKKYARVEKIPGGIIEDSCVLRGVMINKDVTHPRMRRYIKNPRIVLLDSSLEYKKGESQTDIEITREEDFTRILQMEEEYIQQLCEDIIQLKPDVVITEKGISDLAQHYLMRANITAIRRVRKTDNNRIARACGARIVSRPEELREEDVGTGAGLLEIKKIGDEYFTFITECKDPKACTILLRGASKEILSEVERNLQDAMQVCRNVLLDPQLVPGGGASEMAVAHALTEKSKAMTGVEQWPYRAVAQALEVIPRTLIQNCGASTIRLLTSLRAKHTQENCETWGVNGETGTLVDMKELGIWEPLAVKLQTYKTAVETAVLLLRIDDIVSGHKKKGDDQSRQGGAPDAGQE
# Chain of chaperonin CCT (chaperonin containing TCP-1), bovine testis (Q3ZBH0 whole entry, looked up): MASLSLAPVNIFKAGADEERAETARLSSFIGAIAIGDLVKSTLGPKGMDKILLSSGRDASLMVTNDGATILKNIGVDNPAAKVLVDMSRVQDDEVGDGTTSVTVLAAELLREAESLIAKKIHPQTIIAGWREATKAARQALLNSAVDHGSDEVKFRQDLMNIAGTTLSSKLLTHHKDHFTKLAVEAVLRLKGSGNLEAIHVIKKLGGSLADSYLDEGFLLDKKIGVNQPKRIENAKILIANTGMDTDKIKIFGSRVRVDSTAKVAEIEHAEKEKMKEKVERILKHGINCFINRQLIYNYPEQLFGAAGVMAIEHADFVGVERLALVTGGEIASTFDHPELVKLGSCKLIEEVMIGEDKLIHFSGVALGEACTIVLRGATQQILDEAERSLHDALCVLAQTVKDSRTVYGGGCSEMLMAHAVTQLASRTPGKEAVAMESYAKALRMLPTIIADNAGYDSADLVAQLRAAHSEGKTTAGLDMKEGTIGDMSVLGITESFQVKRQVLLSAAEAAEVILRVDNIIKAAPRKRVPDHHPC
# Chain of chaperonin CCT (chaperonin containing TCP-1), bovine testis (Q32L40 whole entry, looked up): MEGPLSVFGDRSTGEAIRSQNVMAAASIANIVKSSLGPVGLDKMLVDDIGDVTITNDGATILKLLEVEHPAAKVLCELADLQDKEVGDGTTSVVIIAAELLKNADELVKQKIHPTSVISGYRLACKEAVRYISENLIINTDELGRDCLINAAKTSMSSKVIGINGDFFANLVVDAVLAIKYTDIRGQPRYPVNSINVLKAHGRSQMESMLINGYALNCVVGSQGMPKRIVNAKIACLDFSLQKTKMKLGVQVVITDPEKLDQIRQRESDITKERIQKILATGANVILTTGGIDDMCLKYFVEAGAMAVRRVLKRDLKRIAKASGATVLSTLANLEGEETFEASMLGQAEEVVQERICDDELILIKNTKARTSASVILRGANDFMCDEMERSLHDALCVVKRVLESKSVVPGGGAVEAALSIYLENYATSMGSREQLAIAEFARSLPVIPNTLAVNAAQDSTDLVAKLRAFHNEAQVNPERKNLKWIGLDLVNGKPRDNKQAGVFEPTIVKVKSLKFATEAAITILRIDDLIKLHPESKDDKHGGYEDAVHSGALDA
Substance,percentage of α-syn NAC fibres (ThT fluorescence) with ADP and CCT at a molar ratio of 1:50 CCT:deletion mutant [1],"percentage of α-syn ΔC fibres (ThT fluorescence) with ADP and CCT: 33% at a molar ratio of 1:10, 58% at 1:50 [2]",percent of CCT cosedimented with fibres [3]
"chaperonin CCT (chaperonin containing TCP-1), bovine testis (from UniProt Q32L40 1-556; Q3ZBH0 1-535; Q3T0K2 1-545; Q3MHL7 1-531) (complex)",38%,58%,
"chaperonin CCT (chaperonin containing TCP-1), bovine testis, Q32L40 1-556; Q3ZBH0 1-535; Q3T0K2 1-545; Q3MHL7 1-531",,,< 60%
